Assay: soluble on expression in E. coli; label from the status in PepcDB or PDB records
With “MGSDKIHHHHHHNRASAQTVSEKDATSTQAPVFLTYTVTKENETVEIVGQVTADTKKVTSKVSGDVLEIYVEEGDVVQVGQKIAKIDDTDYQISYLSALNSYKTSPTEINRLNLEKAKENLENTTVVSPVSGVVQAVNVDVGDRVSVGTSIVTIVETDTLRVEGSISEYDLKNVKEGMKAVFTFEQLGLTLTGKVKRISPVAETSGGVTVIPVEFSFDQTPPSLVIPGLTCDVEIIIKEATSSFFIPKEAVRQDQNGYYVMKQTPQGPQKVYVELGEELNDKIEIKKGVSEGDVLLLIPSQQEIQRLRTRQGLPMFGPGGGRAR” the “soluble on expression in E. coli” value was “not soluble”.
With “MGSDKIHHHHHHMLKRLLDYNEGEEFDLVLMVKNSELRQDKRGKHYLLMQLADSSGSIRANYWQAKAEDASRFNAGTVVEASGMIEDYHNHDQIKLFSIHPVSPDDQADLSQLVATAPEKPAEMEKEIKDFVAQIDNKNWHDLVDFLLKKWSSRFFAYPAGKSNHHAYKGGLAFHTLTMLKDARGLADNYPAVNRSLLYAGCILHDMGKVLELSGPVATQYTAEGNLVGHLVLIDEQLMLAAQELKIDLASEDLLLLRHMVLSHHGRYEYGSPKLPALLEAELLHRIDDLDAAVNAITTVNCPRPSRGNSPRR” the “soluble on expression in E. coli” value was “not soluble”.
With “MSLKQKLIKKAQELRQHGFTTGEIADELNVSMDTARWLTLQKPAEEKPEAPVDFFINWKSLGGNSTRLRYVSGALSDMALSHGEAEVILGIAVSGIPFATMMADFLEDMSGVETSLAVYHPHKHRKEKDDGEGAISTNFGSVEGKKVVIVDDVITSGKTVKEVIHAVKDHGGEPIAVTVLIDKSGLSEIEEVPIESLIKVGRLEGHHHHHH” the “soluble on expression in E. coli” value was “soluble”.
For “MGSDKIHHHHHHMIFSMSSLHDMRFICLRTAPLKNSAYLLSALLIIACQPTSPTEALTSENNEMVDMPLISADSVTITPDHILSIKPTRYQPSLGLQGRIDSIKQINLVAGQPLTVEQVLVSENQWVKKGTPLLTVRRQEIFNKPTMSDDPATDVDASLNTTASNIDRASASDNTSQTSDLITLRARFSGRVENLSVQAGQKIEAQTALLKLSDATELHFISTLPIEAESQISVGQTVNFTAEDRVDKFTGQVSKVQALKQPIQLLVYVNVINNEVSRNQLAPGMQVTGRVDYGQIEVGTIVPKNALHNVDLTQIQVPPYKPLRSLTANIWIIGQDQRLTRQPIEVIEYDPLTKQYLIAGISSDSLICLANLPIESKGKKVVVS”, the “soluble on expression in E. coli” value was “not soluble”.
In the case of “PHFRGPVRKSTSIDTGPTESPASLKRVASPAAKPAIPGEEFIAMYTYESSEQGDLTFQQGDVIVVTKKDGDWWTGTGGDKSGVFPSNYVRLKDSEGSGTAGKTGSLGKKPEIAQVIASYAATGPEQLTLAPGQLILIRKKNPGGWWEGELQARGKKRQIGWFPANYVKLLSPGTSKITPTELPKTAVQPAVCQVIGMYDYTAQNDDELAFSKGQIINVLNKEDPDWWKGEVSGQVGLFPSNYVKLTTDMDPSQQWCSDLHLLDMLTPTERKRQGYIHELIVTEENYVNDLQLVTEIFQKPLTESELLTEKEVAMIFVNWKELIMCNIKLLKALRVRKKMSGEKMPVKMIGDILSAQLPHMQPYIRFCSCQLNGAALIQQKTDEAPDFKEFVKRLAMDPRCKGMPLSSFILKPMQRVTRYPLIIKNILENTPENHPDHSHLKHALEKAEELCSQVNEGVREKENSDRLEWIQAHVQCEGLSEQLVFNSVTNCLGPRKFLHSGKLYKAKSNKELYGFLFNDFLLLTQITKPLGSSGTDKVFSPKSNLQYKMYKTPIFLNEVLVKLPTDPSGDEPIFHISHIDRVYTLRAESINERTAWVQKIKAASELYIETEKKKREKAYLVRSQRATGIGRLMVNVVEGIELKPCRSHGKSNPYCEVTMGSQCHITKTIQDTLNPKWNSNCQFFIRDLEQEVLCITVFERDQLSADDFLGRTEIRVADIKKDQGSKGPVTKCLLLHEVPTGEIVVRLDLQLFDEP”, the “soluble on expression in E. coli” value is reported as “soluble”.
With “MGSDKIHHHHHHMQVLGLCRFSYLGLGGFKVMHETLEERRAYLYAPARMEDRFRQFEAVTLPSVTGQTDPDFEFLVVIGECFPDSYRARLEDLVRGVPQVRIRAYPPLRHRTAMAQALDDHRRDMDAPCLQFRLDDDDGMARDFVARYREVAADTEALWRKHPAVAVDFNTGYVFRCGKRGIEISPFQFAYSAIALGVIVAPGHREGIMHFGHHKLWTVMPTITVPGEDMMLRGHNEFNDSRAKPGAKQFSYQPLDADEEAYFKARFNVDNARVREIFSAPMP” the “soluble on expression in E. coli” value was “not soluble”.
With “MSLRKPNEKTMKTKFCRTAVYCLCCFMFIQPITGSQVNDTHEGVLHIDKQKTRKVSRVQYGFHYEEIGMIGEGALHAELVRNRSFEEATPPADLAVKNGLYQNVPNPRGKNKDVFHVDPLIGWNTYPLSYTPIFISRTEENPLNKENKYSMLVNVTEDIANNPEAMILNRGYYGMNLRKEVSYHLSMYIKSKNYTALLQVMLVDEQGKPVSTQLVLDVKGKEWTKLTGTLKPDKDVKRGMLAIQPLGKGQFQLDVVSLFPSDTWDNGKSVFRADIMQNLKEYAPDFIRFPGGCIVHGVNEATMYHWKKTIGPIENRPGQWSKWAPYYRTDGIGYHEFYELCEYLGADAMYVIPTGMICTGWVKQSSPWNFIQPDVDLDAYIQDALDAIEYAIGPETSKWGALRVKNGHPKPFPLKYIEIGNEDFGPVYWERYEKIYQALHRQYPDLIYIANSIIGKENDDKRIDIAKFVNPKNVKVFDEHHYQPVEWACKQHYRFDNYERGIADLFVGELGIDGKYPYNLLASGAVRMSLERNGDLNPLLAERPVMRHWDFSEHRQLHSMLINGVDCSIRTSFYYLSKMFRDHTFDVCLDAGIQGMKGLQNVFVTMGYDSESKEYILKLINLRKQEVVLQTAVKGFGKKIQAQKITLSLEPGKNNTPEMPDAVKPVQSTVTLDLNKDLQLEASSMIVYRFKEGHHHHHH” the “soluble on expression in E. coli” value was “soluble”.
For “MSLGIGHPMWVGWCIIIAMRSIPASVESSVLRWARESCGLTEVAAARKLGLPDDRVAAWEVGEVVPTIAQLRKAAEVYKRSLAVFFLSEPPEGFDTLRDFRRLDGAASGQWTPGLHEEFRRAHTQRDFALELADAEDREIPGAWRLPLSGDEADADIAARIRKALIEVSPLPIPVASVDPYEHLNAWVSAIETSGVLVLATRGGKVAIDEMRGMCLYFDELPVIVLNGSDHPRPRLFSLLHEFVHVVLHTEGLCDVIADAHPSTQDRSLEARCNAIAAAVLMPADVVRARPEVIVRSETPSSWDYESLRPVAAHFGVSAEAFLRRLSTLGIVPVEVYRQRRAEFIAAHEDEAEGHHHHHH”, the “soluble on expression in E. coli” value was “soluble”.
For “MALKTAVHEKIMNDVVLAVKKNAEWKVLIVDQLSMRMVSACCKMHEIMSEGITLVEDINRRREPLPLLEAVYLITPTEESVKCLMADFQNPDNPQYRGAHIFFTEACPEELFKELCKSTTARFIKTLKEINIAFLPYESQIFSLDSPDTFQVYYNPSRAQGGIPNKERCAEQIATLCATLGEYPSVRYRSDFDENASFAQLVQQKLDAYRADDPTMGEGPQKDRSQLLILDRGFDPISPLLHELTFQAMAYDLLPIENDVYKYVNTGGNEVPEKEVLLDEKDDLWVEMRHQHIAVVSQNVTKKLKQFADEKRMGTAADKAGIKDLSQMLKKMPQYQKELSKYSTHLHLAEDCMKQYQQHVDKLCKVEQDLAMGTDADGEKIRDHMRNIVPILLDQKISAYDKIRIILLYIIHKGGISEENLAKLVQHAHIPAEEKWIINDMQNLGVPIIQDGGRRKIPQPYHTHNRKERQADHTYQMSRWTPYMKDIMEAAVEDKLDTRHYPFLNGGGPRPSCQQPVSVRYGHWHKDKGQASYKSGPRLIIFVVGGISYSEMRSAYEVTQTAKNNWEVILGSTHILTPEGLLRDLRKISNP”, the “soluble on expression in E. coli” value was “soluble”.
With “MFSDTDISMMENALRLAALGRFSTSPNPRVGCVIAHGSQIVGQGFHVKAGEPHAEVHALRQAGEMAQGATAFVTLEPCSHYGRTPPCAEALVRAGVSRVVAAMRDPNPLVAGKGLALLEAAGIKTECGLLEHQARELNRGFLSRIERRRPFVRLKCAVSLDGKTALSDGSSFWITGEDARADVQVLRAESCAVLTGIGTVLADNPRLNVRAFPTLRQPARIVLDSRLRLPPNSHLVTDGQSPTYIATLERNEDRLHPYREHAHVRILMPSETADSKIDLHHLMRLLADEGFGEIMVEAGSELTSAFLAENLADEIVLYRSPKILGSGKDLFSLLENRAALSAPPLWTPVSSEILGHNIKTVFRKNGNAF” the “soluble on expression in E. coli” value was “soluble”.
With SAQSQRAPDRVLCHSGQQQGLPRAAGGSVPHPRCH the “soluble on expression in E. coli” value was “soluble”.
With “MSLRVQANSRSMGVLEDKARARTFYKYLSKVYDRVNTFIWTEEMRAEALSMLDIDAEDRVLDVGCGTGFGTEGLLKHTEHVYGLDQSPHQLTKAWEKFGKHDPVAFHFGDAERLPFKPDSFDVVWSSGSIEYWPHPVQGLRELRRVAKPGSQVLVVGPDYPASTVFRKLADAIMLFYDEDEADRMFREAGYEEIQHRVLRKEPNSPPAIVTVARAPAADDEGHHHHHH” the “soluble on expression in E. coli” value was “soluble”.
In the case of “MSDKRRYFGTDGVRGKVGQYPITPDFVLKLGWAAGRVLAKQGTRKVIIGKDTRISGYMLESALEAGLAAAGLKATFTGPMPTPAVAYLTQTFRAEAGIVISASHNPYYDNGIKFFSYEGTKLPDDIELAIEAELDKDIECVESAELGKASRMVDAAGRYIEFCKSTFPSKLSLSGLKLVVDCANGATYHIAPNVFRELGAEVIAMGVEPNGLNINDQVGATDVRALQKRVVEEHAHLGLAFDGDGDRIIMVDHLGNKVDGDQIAYIIARDALRRGELKGGVVGTLMTNLGMENGLKQLGIPFVRAAVGDRYVMEKLLEKGWKIGAENSGHVILLDKVTTGDAIVAGLQVLASVVGSEMTLHELAKGMTLYPQVLENVRFAGDNNPLEADAVKAAVSEVEAELGSKGRVLLRKSGTEPLIRVMVEGEDETLVKQSALKIAQAVKDNC”, the “soluble on expression in E. coli” value is reported as “not soluble”.
For “MSLVDHVHFERELTLLKSDVSKMLFLVSESLNDAIESLETMNETLARKVLESDDMIDELNREIEEKAYQIIARYNPILKQLRYIITILKFSNDLERIGDLSCNIAEKCLFLSEEKIKFEMLKELKDMFGSTLKVVQDAFKAFVEEDVDLAFRLWKFDDVIDEMEKKIRRIVVERIREGNISAELALVYILIARDLERVGDHANNLCEEVIYIETGKNMKEFLRGVESGSEGADSEGGSHHHHHH”, the “soluble on expression in E. coli” value was “soluble”.
With “MGSSHHHHHHSSGRENLYFQGHMASQLTDAFARKFYYLRLSITDVCNFRCTYCLPDGYKPSGVTNKGFLTVDEIRRVTRAFARLGTEKVRLTGGEPSLRRDFTDIIAAVRENDAIRQIAVTTNGYRLERDVASWRDAGLTGINVSVDSLDARQFHAITGQDKFNQVMAGIDAAFEAGFEKVKVNTVLMRDVNHHQLDTFLNWIQHRPIQLRFIELMETGEGSELFRKHHISGQVLRDELLRRGWIHQLRQRSDGPAQVFCHPDYAGEIGLIMPYEKDFCATCNRLRVSSIGKLHLCLFGEGGVNLRDLLEDDTQQQALEARISAALREKKQTHFLHQNNTGITQNLSYIGG” the “soluble on expression in E. coli” value was “soluble”.
For “AIANFNDAKNEILQVLSKTERQHLPKLLEWIKTSDDLDDILVDNQSVILHSIAEDLRACLPMEAMAPSETLAMQKTQQKAHPTVHVDAFLYDDETVDSLCEEGKMSRTYCLNCGSHRTAPLEFISHSFSIPELQFLFHNVLPELTGKLVLDVGSRLGAVLFGGYLYSAASQLVGVEMSSEFVKLQSMAVEKYGFSDRIQVIHADIRSQIALVQKADVLIMNNVFEYFMEPRDQMQAWLYISQNFRKKGALLVTVPSIQEALGLLQDAAFLETLSLSQWIEEIPVDYSVYLKNDTDPDSLKQIHLYRVL”, the “soluble on expression in E. coli” value was “soluble”.
In the case of “MGSDKIHHHHHHAENNDDCFRGVPLQVKLPAGILSETMQDINIYVFDGSDRLLDILPIRSLEPVILSYPGIPSLHCIAWGNTQDGTMYVSPLKTGDPLSAGFISLKPSAVTRAQKSIFISPTDLFYGELNVDNTSTSNRIEEKEMSVSRMVASMNITIRGLELLSQSNEGVYSIVVHETASRVDFEGRYGGDPASYAFSPRFEAGKDYIIPPFNLFPTTVGSGISIDIYRNGSLLRSISTDSGNQPILPVVGKTLNVLLNFRLDVDVELALTGWGEEYIWKEYN”, the “soluble on expression in E. coli” value is reported as “not soluble”.
For “MLSAESLKQIDIELAKYPADQRRSAIMGALRIAQTEKGWLAPETIAFVADYIGITPAQAYEVATFYNMYDLEPVGKYKLTVCTNLPCALRGGMATGEYLKQKLGIGYGETTPDGKFTLVEGECMGACGDAPVMLVNNHSMCSFMTEEAIEKKLAELE”, the “soluble on expression in E. coli” value was “not soluble”.
